This test has as its target T1, SETD3 WT (Homo sapiens, UniProt Q86TU7).
T1 construct: GST (cleaved yes); made in house; host or cells: Escherichia coli BL21(DE3) CodonPlus
T1 sequence (Q86TU7 1-594): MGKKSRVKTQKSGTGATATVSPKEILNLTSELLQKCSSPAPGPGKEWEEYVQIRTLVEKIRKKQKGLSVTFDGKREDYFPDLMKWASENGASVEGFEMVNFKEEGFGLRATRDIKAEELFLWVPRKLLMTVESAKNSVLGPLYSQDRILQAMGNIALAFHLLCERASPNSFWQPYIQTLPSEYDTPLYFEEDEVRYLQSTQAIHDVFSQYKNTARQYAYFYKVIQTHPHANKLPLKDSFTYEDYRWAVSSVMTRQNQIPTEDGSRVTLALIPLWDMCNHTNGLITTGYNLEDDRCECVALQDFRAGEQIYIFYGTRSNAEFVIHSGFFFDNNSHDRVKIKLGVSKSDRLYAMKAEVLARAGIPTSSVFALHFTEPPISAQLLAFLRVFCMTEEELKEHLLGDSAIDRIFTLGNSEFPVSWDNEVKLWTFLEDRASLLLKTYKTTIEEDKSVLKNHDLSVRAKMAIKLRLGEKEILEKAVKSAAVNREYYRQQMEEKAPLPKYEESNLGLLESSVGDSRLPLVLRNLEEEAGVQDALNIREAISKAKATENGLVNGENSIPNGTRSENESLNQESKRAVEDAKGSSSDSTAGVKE
Put plainly: Steady-state kinetics of SETD3 WT on K73 peptides (Fig. 3b, c; pH 10.5, 37 °C, 40 µM SAM). In kind it is biochemical. On the procedure:
Fig. 3 Kinetics of SETD3 on H73 and K73 peptides. a Comparison of activities of three variants (WT, N255A, and N255V) on H73(66–80) peptide. The assays were performed at room temperature (~22 °C) and pH 8.0 using [WT] = 0.18 μM, [N255A] = 0.18 μM, and [N255V] = 0.72 μM. b Comparison of SETD3 WT activities on two K73 peptides (residues 66–80 and 66–88). The assays were performed at 37 °C and pH 10.5 using [WT] = 3 and 15 μM, respectively, for the long and short peptides. c Comparison of activities of three variants (N255A, N255V, and WT) on K73(66–88) peptide. The assays were performed at 37 °C and pH 10.5 using [N255A] = 90 nM, [N255V] = 0.72 μM and [WT] = 4 μM. Data represent the mean ± SD of N number of independent determinations (N = 3 for the WT and N = 2 for the mutants) performed in duplicate. Source data are provided as a Source Data file. d, e Mass spectrometry analysis of K73(66–88) methylation kinetic showing representative spectra at various time points for N255A variant (panel d) and SETD3 WT enzyme (panel e). The assays were performed at 37 °C and pH 10.5 using 3 μM for both N255A and WT. f In vitro methylation reactions with SETD3, indicated full-length actin proteins, and radiolabeled methyl donor (^3H-SAM). Right, Reactions were resolved by SDS–PAGE and activity was visualized by autoradiography. […] The first column head is 'SETD3', and the substrate peptide is printed only on the plot axis. / Panel b: the first column head is 'SETD3 (WT)', and the rows are K73 peptide substrates.
Recombinant human SETD3 (pXC2003) was expressed as a GST-fusion[22] in Escherichia coli BL21(DE3) CodonPlus^TM cells (Stratagene). The SETD3 mutants at residue 255 (N255A; pXC2093 and N255V; pXC2094) were generated with Q5 Site-Directed Mutagenesis Kit (New England Biolabs), confirmed by sequencing and the same protocol for expression and purification were followed. Briefly, the purification was conducted in a BIO-RAD NGC^TM system using a three-column chromatography of glutathione-sepharose, HiTrap Q-HP and Superdex 200. The GST tag was removed by PreScisson Protease (purified in-house). The purified SETD3 proteins at a concentration ~25–35 mg/ml were kept at −80 °C in storage buffer for future use [20 mM Tris (pH 8.0), 200 mM NaCl, 5% glycerol, and 0.5 mM tris (2-carboxyethyl) phosphine (TCEP)].
A reaction mixture contained 20 mM Tris/HCl (pH 8.0) or 20 mM glycine/NaOH (pH 10.5), 50 mM NaCl, 0.1 mg/ml BSA, 1 mM DTT, 0.18–15 µM SETD3 (as indicated in Fig. 3), 40 µM SAM and varying concentration of peptides. The reactions were carried out at room temperature (~22 °C) or 37 °C for different time (20 min to 3 h) with a total volume of 20 µl, and terminated by the addition of TFA to 0.1% (v/v) for Tris/HCl (pH 8.0) or 0.4% (v/v) for Glycine/NaOH (pH 10.5). Samples terminated with the addition of 0.4% (v/v) TFA were then further diluted 4× with buffer 20 mM Tris/HCl (pH 8.0), 50 mM NaCl, 0.1 mg/ml BSA, 1 mM DTT to reduce the TFA concentration. The dependence of the velocity of product formation per enzyme on substrate concentration was analyzed according to the Michaelis–Menten equation.

The mark [1] stands for this setting: pH 10.5, 37 °C, [WT] = 3 and 15 μM for long and short peptide (Fig. 3b), 4 μM (Fig. 3c).
The mark [2] stands for this setting: pH 10.5, 37 °C, [WT] = 3 and 15 μM for long and short peptide (Fig. 3b), 4 μM (Fig. 3c), mean ± SD.

This is an account of results in publication PMC6684798, “Structural basis for the target specificity of actin histidine methyltransferase SETD3” (Nature Communications, 2019).

For the substance “K73(66–80): K73-containing (H73K) actin peptide, residues 66–80 (TLKYPIEKGIVTNWD; UniProt P60709 66-80, looked up, variant H73K)”, under “Km, K73(66–80) vs. H73(66–80)”, the “affinity for the substrate weaker than for H73 substrate” value is reported as ~ 20 -fold. In addition, under “kcat, K73(66–80) (pH 10.5, 37 °C) vs. H73(66–80) (pH 8.0, ~22 °C)”, the “maximum reaction rate slower than for H73 substrate” value is ~ 40 -fold. Further, the “loss in catalytic efficiency” value (kcat/Km, K73(66–80) vs. H73(66–80)) is listed as “more than 1000 -fold”. Under setting [1], the kcat/Km was found to be 0.0013 h⁻¹ µM⁻¹. Under setting [2], the Km came out at 430 µM and the kcat came out at 0.6 h⁻¹.
For “K73(66–88): K73-containing actin H73K peptide, residues 66–88 (TLKYPIEKGIVTNWDDMEKIWHH; UniProt P60709 66-88, looked up, variant H73K)”, under “factor in kcat/Km, long (66–88) vs. short (66–80) peptide”, the “increase of catalytic efficiency on K73 by lengthened peptide” value is ~ 100. In addition, the kcat/Km under setting [1] turned out to be 0.13 h⁻¹ µM⁻¹. In addition, the Km under setting [2] stood at 5.2 µM. Moreover, the “Km compared with H73(66–80) peptide” value (pH 10.5, K73(66–88) vs. H73(66–80)) is recorded as “about four-fold better”.
